Test results: PMC8457831, “Structural basis for diguanylate cyclase activation by its binding partner in Pseudomonas aeruginosa” (eLife, 2021)

What was measured:
SiaD [1] = biological target: T1, SiaD (Pseudomonas aeruginosa, UniProt A0A069QEY1); test: ITC (also HPLC assay of c-di-GMP production from GTP); type: binding; set-up: gene pleD_6; SiaD alone, full length
SiaD [2] = biological target: T1, SiaD; test: X-ray crystal structure of SiaC–SiaD–GpCpp complex, […] Å; type: binding; set-up: gene pleD_6; full-length SiaD (redefined start at the upstream ATG codon); with SiaC (2:4 SiaD–SiaC complex)
SiaD [3] = biological target: T1, SiaD; test: HPLC DGC activity assay with […] c-di-GMP; thermal shift (+[…] ℃ at […]); SEC; inhibition abolished by R201A; type: biochemical; set-up: gene pleD_6; full-length SiaD, alone and in the SiaC–SiaD complex
[4] = biological target: SiaD (full length, sumo-His tag removed) (Pseudomonas aeruginosa); test: SEC-MALS; SiaD alone at 4 mg/ml, WTC-030S5 column, 20 mM HEPES pH 7.0, 150 mM NaCl, 1 mM DTT
[5] = biological target: SiaD (full length, sumo-His tag removed) (Pseudomonas aeruginosa); test: crystal structure; SiaC-SiaD complex (10 mg/ml) with GpCpp 1:5, sitting drops at 18°C, space group C222(1), 2.65 Å
[6] = biological target: SiaD (full length, sumo-His tag removed) (Pseudomonas aeruginosa); test: SEC-MALS; single proteins: SiaC at 1.5 mg/ml, SiaD at 8 mg/ml, WTC-030S5 column, 20 mM HEPES pH 7.0, 150 mM NaCl, DTT
[7] = biological target: SiaD (full length, sumo-His tag removed) (Pseudomonas aeruginosa); test: SEC-MALS; SiaC-SiaD complexes (wild type and SiaD motif mutants) at 2 mg/ml, WTC-030S5 column, 20 mM HEPES pH 7.0, 150 mM NaCl, DTT
[8] = biological target: SiaD (full length, sumo-His tag removed) (Pseudomonas aeruginosa); test: native gel or EMSA; blue native PAGE, 8% gel, SiaD (25 ug) alone or mixed with excess SiaC (35 ug), 50 min at 15 mA, Coomassie stain
[9] = biological target: SiaD (full length, sumo-His tag removed) (Pseudomonas aeruginosa); test: SAXS; synchrotron solution SAXS (SEC-SAXS for SiaD), 20 mM HEPES pH 8.0, 150 mM NaCl, 1 mM DTT, 25°C; 8 mg/ml SiaD or 11 mg/ml SiaC-SiaD complex
[10] = biological target: SiaD (full length, sumo-His tag removed) (Pseudomonas aeruginosa); test: ITC; SiaD in the cell, SiaC or SiaC mutant in the syringe, 25°C, MicroCal iTC200 or PEAQ-ITC
[11] = biological target: SiaD^S50A-Q54A (Pseudomonas aeruginosa); test: SEC-MALS; SiaC-SiaD complexes (wild type and SiaD motif mutants) at 2 mg/ml, WTC-030S5 column, 20 mM HEPES pH 7.0, 150 mM NaCl, DTT
[12] = biological target: SiaD^S82A-Q86A (Pseudomonas aeruginosa); test: as above
[13] = biological target: SiaD (full length, sumo-His tag removed) (Pseudomonas aeruginosa); test: SPR; Biacore T200, protein amine-coupled to a CM5 chip (about 5000 RU), 25°C; running buffer 10 mM Tris-HCl, 150 mM NaCl, 0.05% P-20, pH 7.5; SiaC or SiaC^M3 at varying concentrations over SiaD; fits to a 2:1 interaction

`Nc1nc2c(ncn2[C@@H]2O[C@H](COP(=O)(O)OP(=O)(O)OP(=O)(O)O)[C@@H](O)[C@H]2O)c(=O)[nH]1` [GTP] showed a Kd (SiaD [1]) of 12000 nM.

`Nc1nc2c(ncn2[C@@H]2O[C@H](COP(=O)(O)CP(=O)(O)OP(=O)(O)O)[C@@H](O)[C@H]2O)c(=O)[nH]1` [GpCpp] was tested, and the “X-ray crystal structure of SiaC-SiaD-GpCpp complex, 2.65 Å” value (SiaD [2]) was “a non-hydrolyzable GTP analog GpCpp molecule was observed to bind in the active site of SiaD-A”.

For `Nc1nc2c(ncn2[C@@H]2O[C@@H]3CO[P@](=O)(O)O[C@H]4[C@@H](O)[C@H](n5cnc6c(=O)[nH]c(N)nc65)O[C@@H]4CO[P@](=O)(O)O[C@H]3[C@H]2O)c(=O)[nH]1` [c-di-GMP], the “HPLC DGC activity assay with 50 μM c-di-GMP; thermal shift (+7.1 °C at 25 μM); S” value (SiaD [3]) was “the enzyme activity of SiaD was inhibited by c-di-GMP more extensively than the SiaC–SiaD complex”.

For “SiaD (full length, sumo-His tag removed) (enzyme)”, the stoichiometry N [4] was 5, the stoichiometry N [5] was 2 and the stoichiometry N [6] was 5. The stoichiometry N [7] was 2, the stoichiometry N [8] was 5 and the stoichiometry N [9] was 5.

B1: SiaC (sumo-His tag removed) (natural protein)
chain: MSDLHIPGTQSTPAIQGDWQAGRLSMQGDSYPENSYELFGQVIDWVERFLADGQRPLELDLRLLYLNTSSIKAMMDILDLLEEAHQGGRPVSLRWHYDRRNERVAELAEEFREDCSFPFAIQAHDE
Molecule B1 has a Kd [10] of 49.8 nM, a stoichiometry N (SiaC per SiaD (2:4 SiaD:SiaC)) [11] of 2 and a stoichiometry N (SiaC per SiaD (2:4 SiaD:SiaC)) [12] of 2.

B2: SiaC-His (natural protein)
chain: B1 chain
For B2, the Kd [13] was 11.8 nM.
